The values below are quoted from earlier work in PMC4370504.

The series concerns the target ubiquitin (Homo sapiens) (UniProt P0CG47). The series can be described thus: ITC.

Sequence of Pol eta UBZ (Q9Y253 625-665): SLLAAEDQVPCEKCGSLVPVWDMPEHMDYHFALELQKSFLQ

Take Pol eta UBZ (from UniProt Q9Y253): the Kd (commonly the free concentration of one partner at which half of the binding sites on the other are occupied at equilibrium, for simple one-to-one binding) was 81 µM.
